In paper doi:10.1101/2025.05.24.655970:

Target: Dob3, ferritin-like diiron oxidase/oxygenase (FDO) of the dob gene cluster (Nocardia ninae)
Assay: SEC; size-exclusion chromatography of purified Dob3; column and buffer not told in the text shown (Supplementary Figure 19)

Substance: Dob3, ferritin-like diiron oxidase/oxygenase (FDO) of the dob gene cluster (enzyme)
- stoichiometry N: 2
